# From IntAct's records for PubMed 23112296
# B1: Keratin, type I cytoskeletal 18 (Homo sapiens), P05783 (parent)
# chain: MSFTTRSTFSTNYRSLGSVQAPSYGARPVSSAASVYAGAGGSGSRISVSRSTSFRGGMGSGGLATGIAGGLAGMGGIQNEKETMQSLNDRLASYLDRVRSLETENRRLESKIREHLEKKGPQVRDWSHYFKIIEDLRAQIFANTVDNARIVLQIDNARLAADDFRVKYETELAMRQSVENDIHGLRKVIDDTNITRLQLETEIEALKEELLFMKKNHEEEVKGLQAQIASSGLTVEVDAPKSQDLAKIMADIRAQYDELARKNREELDKYWSQQIEESTTVVTTQSAEVGAAETTLTELRRTVQSLEIDLDSMRNLKASLENSLREVEARYALQMEQLNGILLHLESELAQTRAEGQRQAQEYEALLNIKVKLEAEIATYRRLLEDGEDFNLGDALDSSNSMQTIQKTTTRRIVDGKVVSETNDTKVLRH
# Variants of: B1
# Conditions: with becn1_human BECN1, Q14457
# Sequence of becn1_human BECN1, Q14457 (Q14457 whole entry): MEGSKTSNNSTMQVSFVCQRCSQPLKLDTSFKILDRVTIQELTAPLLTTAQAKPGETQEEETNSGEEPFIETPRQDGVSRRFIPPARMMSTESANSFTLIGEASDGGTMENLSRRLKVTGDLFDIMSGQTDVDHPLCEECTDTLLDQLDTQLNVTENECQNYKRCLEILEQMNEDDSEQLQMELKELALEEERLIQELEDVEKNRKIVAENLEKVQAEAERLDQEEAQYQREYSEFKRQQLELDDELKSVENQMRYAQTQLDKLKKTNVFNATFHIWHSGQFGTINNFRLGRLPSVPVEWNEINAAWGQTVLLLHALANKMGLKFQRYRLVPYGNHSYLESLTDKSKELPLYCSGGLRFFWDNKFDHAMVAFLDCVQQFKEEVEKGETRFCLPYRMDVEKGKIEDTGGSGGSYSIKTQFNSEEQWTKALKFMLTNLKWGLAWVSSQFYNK
row,Variant,effect of a mutation on the interaction
1,MSFTTRSTFSTNYRSLGSVQAPSYGARPVSSAAAVYAGAGGSGSRISVSRSTSFRGGMGSGGLATGIAGGLAGMGGIQNEKETMQSLNDRLASYLDRVRSLETENRRLESKIREHLEKKGPQVRDWSHYFKIIEDLRAQIFANTVDNARIVLQIDNARLAADDFRVKYETELAMRQSVENDIHGLRKVIDDTNITRLQLETEIEALKEELLFMKKNHEEEVKGLQAQIASSGLTVEVDAPKSQDLAKIMADIRAQYDELARKNREELDKYWSQQIEESTTVVTTQSAEVGAAETTLTELRRTVQSLEIDLDSMRNLKASLENSLREVEARYALQMEQLNGILLHLESELAQTRAEGQRQAQEYEALLNIKVKLEAEIATYRRLLEDGEDFNLGDALDSSNSMQTIQKTTTRRIVDGKVVSETNDTKVLRH [S34A],disrupting interaction strength
